In one assay the target is T1, human amylin 3 receptor (human, UniProt P30988 25-474; O60896 24-148).
T1 sequence (looked up) 1: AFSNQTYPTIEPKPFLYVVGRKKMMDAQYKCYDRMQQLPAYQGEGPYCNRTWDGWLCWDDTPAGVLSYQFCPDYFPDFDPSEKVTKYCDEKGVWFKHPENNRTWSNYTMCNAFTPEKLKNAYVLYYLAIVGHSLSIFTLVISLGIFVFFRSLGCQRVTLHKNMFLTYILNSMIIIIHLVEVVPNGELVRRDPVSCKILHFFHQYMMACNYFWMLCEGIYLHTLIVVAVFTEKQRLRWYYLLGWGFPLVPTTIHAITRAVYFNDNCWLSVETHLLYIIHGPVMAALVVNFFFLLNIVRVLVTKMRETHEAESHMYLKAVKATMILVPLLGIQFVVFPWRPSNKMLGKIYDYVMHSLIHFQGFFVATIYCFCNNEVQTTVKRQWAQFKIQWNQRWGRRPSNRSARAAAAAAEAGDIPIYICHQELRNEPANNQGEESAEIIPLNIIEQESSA
T1 sequence (looked up) 2: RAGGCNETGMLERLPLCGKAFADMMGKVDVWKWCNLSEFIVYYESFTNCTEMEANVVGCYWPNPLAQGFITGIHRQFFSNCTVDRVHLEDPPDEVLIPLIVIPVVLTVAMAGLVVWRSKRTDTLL
Kind of assay: cell-based or functional assay.

For assay [1], the target named is T2, human calcitonin receptor (human, UniProt P30988 25-474).
T2 sequence (looked up): T1 sequence (looked up) 1
Kind of assay: cell-based or functional assay.

Starred links: 1 amine or outer side, 2 acyl side, 3 side chain; linkers in the order of their positions; H or OH if unused. Positions of bridges follow the written chain, without caps; N, C: chain ends. Groups on a side chain read outwards from the residue. No end group written: not given here. *: point of attachment. C20 diacid = O=C(O)CCCCCCCCCCCCCCCCCCC(=O)*; C18 diacid = O=C(O)CCCCCCCCCCCCCCCCC(=O)*; γGlu = O=C(O)[C@H](CCC(=O)[*:2])N[*:1]

B1: Compound A116 (peptide)
peptide: K([γGlu-C20 diacid])CNTSTCATSRLANFLQKSSNNFGPILPPTKVGSETY-NH2
modifications: disulfide 2-7; N-terminus assumed
SMILES: CC[C@H](C)[C@H](NC(=O)[C@@H]1CCCN1C(=O)CNC(=O)[C@H](Cc1ccccc1)NC(=O)[C@H](CC(N)=O)NC(=O)[C@H](CC(N)=O)NC(=O)[C@H](CO)NC(=O)[C@H](CO)NC(=O)[C@H](CCCCN)NC(=O)[C@H](CCC(N)=O)NC(=O)[C@H](CC(C)C)NC(=O)[C@H](Cc1ccccc1)NC(=O)[C@H](CC(N)=O)NC(=O)[C@H](C)NC(=O)[C@H](CC(C)C)NC(=O)[C@H](CCCNC(=N)N)NC(=O)[C@H](CO)NC(=O)[C@@H](NC(=O)[C@H](C)NC(=O)[C@@H]1CSSC[C@H](NC(=O)[C@@H](N)CCCCNC(=O)CC[C@H](NC(=O)CCCCCCCCCCCCCCCCCCC(=O)O)C(=O)O)C(=O)N[C@@H](CC(N)=O)C(=O)N[C@@H]([C@@H](C)O)C(=O)N[C@@H](CO)C(=O)N[C@@H]([C@@H](C)O)C(=O)N1)[C@@H](C)O)C(=O)N[C@@H](CC(C)C)C(=O)N1CCC[C@H]1C(=O)N1CCC[C@H]1C(=O)N[C@H](C(=O)N[C@@H](CCCCN)C(=O)N[C@H](C(=O)NCC(=O)N[C@@H](CO)C(=O)N[C@@H](CCC(=O)O)C(=O)N[C@H](C(=O)N[C@@H](Cc1ccc(O)cc1)C(N)=O)[C@@H](C)O)C(C)C)[C@@H](C)O
B1: in the assay with human amylin 3 receptor, the “pEC50 (cAMP accumulation), 0% HSA” value was 12 pEC50; the “pEC50 (cAMP accumulation), 0.1% HSA” value was 10.8 pEC50; the “pEC50 (cAMP accumulation), 4% HSA” value worked out at 9.5 pEC50. Moreover, in assay [1], the “pEC50 (cAMP accumulation), 0% HSA” value worked out at 11.7 pEC50; the “pEC50 (cAMP accumulation), 0.1% HSA” value is 10.5 pEC50; the “pEC50 (cAMP accumulation), 4% HSA” value came to 9.3 pEC50.

B2: Compound A76 (peptide)
peptide: SCNTSTCATQRLANEK([γGlu-C18 diacid])HKSSNNFGPILPPTKVGSETY-NH2
modifications: disulfide 2-7; N-terminus assumed
SMILES: CC[C@H](C)[C@H](NC(=O)[C@@H]1CCCN1C(=O)CNC(=O)[C@H](Cc1ccccc1)NC(=O)[C@H](CC(N)=O)NC(=O)[C@H](CC(N)=O)NC(=O)[C@H](CO)NC(=O)[C@H](CO)NC(=O)[C@H](CCCCN)NC(=O)[C@H](Cc1c[nH]cn1)NC(=O)[C@H](CCCCNC(=O)CC[C@H](NC(=O)CCCCCCCCCCCCCCCCC(=O)O)C(=O)O)NC(=O)[C@H](CCC(=O)O)NC(=O)[C@H](CC(N)=O)NC(=O)[C@H](C)NC(=O)[C@H](CC(C)C)NC(=O)[C@H](CCCNC(=N)N)NC(=O)[C@H](CCC(N)=O)NC(=O)[C@@H](NC(=O)[C@H](C)NC(=O)[C@@H]1CSSC[C@H](NC(=O)[C@@H](N)CO)C(=O)N[C@@H](CC(N)=O)C(=O)N[C@@H]([C@@H](C)O)C(=O)N[C@@H](CO)C(=O)N[C@@H]([C@@H](C)O)C(=O)N1)[C@@H](C)O)C(=O)N[C@@H](CC(C)C)C(=O)N1CCC[C@H]1C(=O)N1CCC[C@H]1C(=O)N[C@H](C(=O)N[C@@H](CCCCN)C(=O)N[C@H](C(=O)NCC(=O)N[C@@H](CO)C(=O)N[C@@H](CCC(=O)O)C(=O)N[C@H](C(=O)N[C@@H](Cc1ccc(O)cc1)C(N)=O)[C@@H](C)O)C(C)C)[C@@H](C)O
As for B2, in the assay with human amylin 3 receptor, the “pEC50 (cAMP accumulation), 0% HSA” value was found to be 11.7 pEC50; the “pEC50 (cAMP accumulation), 0.1% HSA” value was 10.5 pEC50; the “pEC50 (cAMP accumulation), 4% HSA” value was determined as 8.7 pEC50. Moreover, in assay [1], the “pEC50 (cAMP accumulation), 0% HSA” value amounted to 10.5 pEC50; the “pEC50 (cAMP accumulation), 0.1% HSA” value was determined as 9.4 pEC50; the “pEC50 (cAMP accumulation), 4% HSA” value amounted to 8.1 pEC50.

B3: Compound A73 (peptide)
peptide: SCNTSTCATQRLANEK([γGlu-C20 diacid])HKSSNNFGPILPPTKVGSETY-NH2
modifications: disulfide 2-7; N-terminus assumed
SMILES: CC[C@H](C)[C@H](NC(=O)[C@@H]1CCCN1C(=O)CNC(=O)[C@H](Cc1ccccc1)NC(=O)[C@H](CC(N)=O)NC(=O)[C@H](CC(N)=O)NC(=O)[C@H](CO)NC(=O)[C@H](CO)NC(=O)[C@H](CCCCN)NC(=O)[C@H](Cc1c[nH]cn1)NC(=O)[C@H](CCCCNC(=O)CC[C@H](NC(=O)CCCCCCCCCCCCCCCCCCC(=O)O)C(=O)O)NC(=O)[C@H](CCC(=O)O)NC(=O)[C@H](CC(N)=O)NC(=O)[C@H](C)NC(=O)[C@H](CC(C)C)NC(=O)[C@H](CCCNC(=N)N)NC(=O)[C@H](CCC(N)=O)NC(=O)[C@@H](NC(=O)[C@H](C)NC(=O)[C@@H]1CSSC[C@H](NC(=O)[C@@H](N)CO)C(=O)N[C@@H](CC(N)=O)C(=O)N[C@@H]([C@@H](C)O)C(=O)N[C@@H](CO)C(=O)N[C@@H]([C@@H](C)O)C(=O)N1)[C@@H](C)O)C(=O)N[C@@H](CC(C)C)C(=O)N1CCC[C@H]1C(=O)N1CCC[C@H]1C(=O)N[C@H](C(=O)N[C@@H](CCCCN)C(=O)N[C@H](C(=O)NCC(=O)N[C@@H](CO)C(=O)N[C@@H](CCC(=O)O)C(=O)N[C@H](C(=O)N[C@@H](Cc1ccc(O)cc1)C(N)=O)[C@@H](C)O)C(C)C)[C@@H](C)O
Regarding B3, in the assay with human amylin 3 receptor, the “pEC50 (cAMP accumulation), 0% HSA” value was 12.1 pEC50; the “pEC50 (cAMP accumulation), 0.1% HSA” value is 10.6 pEC50; the “pEC50 (cAMP accumulation), 4% HSA” value came out at 8.8 pEC50. In assay [1], the “pEC50 (cAMP accumulation), 0% HSA” value was 11.3 pEC50; the “pEC50 (cAMP accumulation), 0.1% HSA” value turned out to be 9.6 pEC50; the “pEC50 (cAMP accumulation), 4% HSA” value is 7.9 pEC50.

Turning to KCNTATCATQRLANFLVHSSNNFGPILPPTNVGSNTY-NH2 (disulfide 2-7; ends not checked) [Pramlintide], in the assay with human amylin 3 receptor, the “pEC50 (cAMP accumulation), 0% HSA” value stood at 12.5 pEC50; the “pEC50 (cAMP accumulation), 0.1% HSA” value turned out to be 12.6 pEC50; the “pEC50 (cAMP accumulation), 4% HSA” value stood at 12.5 pEC50. In addition, in assay [1], the “pEC50 (cAMP accumulation), 0% HSA” value was found to be 11.4 pEC50; the “pEC50 (cAMP accumulation), 0.1% HSA” value turned out to be 11.2 pEC50; the “pEC50 (cAMP accumulation), 4% HSA” value came to 11.1 pEC50.

B4: Compound A114 (peptide)
peptide: K([γGlu-γGlu-C20 diacid])CNTSTCATSRLANFLQKSSNNFGPILPPTKVGSETY-NH2
modifications: disulfide 2-7; N-terminus assumed
SMILES: CC[C@H](C)[C@H](NC(=O)[C@@H]1CCCN1C(=O)CNC(=O)[C@H](Cc1ccccc1)NC(=O)[C@H](CC(N)=O)NC(=O)[C@H](CC(N)=O)NC(=O)[C@H](CO)NC(=O)[C@H](CO)NC(=O)[C@H](CCCCN)NC(=O)[C@H](CCC(N)=O)NC(=O)[C@H](CC(C)C)NC(=O)[C@H](Cc1ccccc1)NC(=O)[C@H](CC(N)=O)NC(=O)[C@H](C)NC(=O)[C@H](CC(C)C)NC(=O)[C@H](CCCNC(=N)N)NC(=O)[C@H](CO)NC(=O)[C@@H](NC(=O)[C@H](C)NC(=O)[C@@H]1CSSC[C@H](NC(=O)[C@@H](N)CCCCNC(=O)CC[C@H](NC(=O)CC[C@H](NC(=O)CCCCCCCCCCCCCCCCCCC(=O)O)C(=O)O)C(=O)O)C(=O)N[C@@H](CC(N)=O)C(=O)N[C@@H]([C@@H](C)O)C(=O)N[C@@H](CO)C(=O)N[C@@H]([C@@H](C)O)C(=O)N1)[C@@H](C)O)C(=O)N[C@@H](CC(C)C)C(=O)N1CCC[C@H]1C(=O)N1CCC[C@H]1C(=O)N[C@H](C(=O)N[C@@H](CCCCN)C(=O)N[C@H](C(=O)NCC(=O)N[C@@H](CO)C(=O)N[C@@H](CCC(=O)O)C(=O)N[C@H](C(=O)N[C@@H](Cc1ccc(O)cc1)C(N)=O)[C@@H](C)O)C(C)C)[C@@H](C)O
With B4, in the assay with human amylin 3 receptor, the “pEC50 (cAMP accumulation), 0% HSA” value was 12.2 pEC50; the “pEC50 (cAMP accumulation), 0.1% HSA” value is 10.7 pEC50; the “pEC50 (cAMP accumulation), 4% HSA” value is 9.5 pEC50. Also, in assay [1], the “pEC50 (cAMP accumulation), 0% HSA” value was 11.7 pEC50; the “pEC50 (cAMP accumulation), 0.1% HSA” value stood at 10.4 pEC50; the “pEC50 (cAMP accumulation), 4% HSA” value was found to be 8.8 pEC50.

B5: Compound A55 (peptide)
peptide: K(C18 diacid)CNTSTCATSRLANFLQKSSNNFGPILPPTKVGSETY-NH2
modifications: disulfide 2-7; N-terminus assumed
SMILES: CC[C@H](C)[C@H](NC(=O)[C@@H]1CCCN1C(=O)CNC(=O)[C@H](Cc1ccccc1)NC(=O)[C@H](CC(N)=O)NC(=O)[C@H](CC(N)=O)NC(=O)[C@H](CO)NC(=O)[C@H](CO)NC(=O)[C@H](CCCCN)NC(=O)[C@H](CCC(N)=O)NC(=O)[C@H](CC(C)C)NC(=O)[C@H](Cc1ccccc1)NC(=O)[C@H](CC(N)=O)NC(=O)[C@H](C)NC(=O)[C@H](CC(C)C)NC(=O)[C@H](CCCNC(=N)N)NC(=O)[C@H](CO)NC(=O)[C@@H](NC(=O)[C@H](C)NC(=O)[C@@H]1CSSC[C@H](NC(=O)[C@@H](N)CCCCNC(=O)CCCCCCCCCCCCCCCCC(=O)O)C(=O)N[C@@H](CC(N)=O)C(=O)N[C@@H]([C@@H](C)O)C(=O)N[C@@H](CO)C(=O)N[C@@H]([C@@H](C)O)C(=O)N1)[C@@H](C)O)C(=O)N[C@@H](CC(C)C)C(=O)N1CCC[C@H]1C(=O)N1CCC[C@H]1C(=O)N[C@H](C(=O)N[C@@H](CCCCN)C(=O)N[C@H](C(=O)NCC(=O)N[C@@H](CO)C(=O)N[C@@H](CCC(=O)O)C(=O)N[C@H](C(=O)N[C@@H](Cc1ccc(O)cc1)C(N)=O)[C@@H](C)O)C(C)C)[C@@H](C)O
For the molecule B5, in the assay with human amylin 3 receptor, the “pEC50 (cAMP accumulation), 0% HSA” value is 12.2 pEC50; the “pEC50 (cAMP accumulation), 0.1% HSA” value came out at 11.2 pEC50; the “pEC50 (cAMP accumulation), 4% HSA” value stood at 9.6 pEC50. In addition, in assay [1], the “pEC50 (cAMP accumulation), 0% HSA” value stood at 11.3 pEC50; the “pEC50 (cAMP accumulation), 0.1% HSA” value is 10.2 pEC50; the “pEC50 (cAMP accumulation), 4% HSA” value was found to be 8.8 pEC50.

The record behind these values is patent US20200115430A1 (I2O THERAPEUTICS, published 2020).
